Reference: PMC8780509

Target: Recombinant human GCK (residues 16-465) fused to a N-terminal hexahistidine tag (human) (UniProt P35557)
Chain of UniProt P35557 (P35557 16-465): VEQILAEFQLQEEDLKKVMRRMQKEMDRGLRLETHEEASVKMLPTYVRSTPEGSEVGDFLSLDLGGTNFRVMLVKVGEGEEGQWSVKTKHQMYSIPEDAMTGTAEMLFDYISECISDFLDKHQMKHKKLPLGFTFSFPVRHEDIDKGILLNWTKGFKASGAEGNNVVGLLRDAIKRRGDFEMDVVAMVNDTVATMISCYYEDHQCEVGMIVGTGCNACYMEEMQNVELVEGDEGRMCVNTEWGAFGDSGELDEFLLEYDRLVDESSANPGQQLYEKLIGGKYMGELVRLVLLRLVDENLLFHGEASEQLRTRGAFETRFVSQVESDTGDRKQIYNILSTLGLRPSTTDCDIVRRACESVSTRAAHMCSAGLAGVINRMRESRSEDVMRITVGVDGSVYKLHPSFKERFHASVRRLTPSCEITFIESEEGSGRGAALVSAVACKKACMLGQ

Purified NS5A-D2 protein (amino acids 250 to 342) (domain or fragment)
maximum velocity (Vmax) of purified GCK, increase in the presence of NS5A-D2: 31%
